For one experiment, the system named is HCoV-OC43 gRNA and sgRNA. The class given is binding. Particulars: for target (unweighted spectral count): OC43 Probe II, 12 hpi (type n_12_v), infected cells, tested against no-probe control; for target (unweighted spectral count, OC43 Probe II) / background (unweighted spectral count, no-probe control): type n_48_v, 48 hpi; for target (unweighted spectral count, OC43 Probe II): OC43 Probe II capture on infected cells; for background (unweighted spectral count, no-probe control): no-probe control on infected cells.

The next experiment deals with gRNA of HCoV-OC43. It counts as binding. Particulars: type n_48_v: 48 hours post-infection, no-probe control on infected cells.

B1: RNPS1 (protein, UniProt Q15287 1-305, looked up)
RNA-binding protein with …: MDLSGVKKKSLLGVKENNKKSSTRAPSPTKRKDRSDEKSKDRSKDKGATKESSEKDRGRDKTRKRRSASSGSSSTRSRSSSTSSSGSSTSTGSSSGSSSSSASSRSGSSSTSRSSSSSSSSGSPSPSRRRHDNRRRSRSKSKPPKRDEKERKRRSPSPKPTKVHIGRLTRNVTKDHIMEIFSTYGKIKMIDMPVERMHPHLSKGYAYVEFENPDEAEKALKHMDGGQIDGQEITATAVLAPWPRPPPRRFSPPRRMLPPPPMWRRSPPRMRRRSRSPRRRSPVRRRSRSPGRRRHRSRSSSNSSR
As to B1, in the experiment with HCoV-OC43 gRNA and sgRNA, the “target (unweighted spectral count)” value is reported as 7.

B2: PATLI (protein, UniProt Q86TB9 1-770, looked up)
Protein PAT1 homolog 1: MFRYESLEDCPLDEDEDAFQGLGEEDEEIDQFNDDTFGSGAVDDDWQEAHERLAELEEKLPVAVNEQTGNGERDEMDLLGDHEENLAERLSKMVIENELEDPAIMRAVQTRPVLQPQPGSLNSSIWDGSEVLRRIRGPLLAQEMPTVSVLEYALPQRPPQGPEDDRDLSERALPRRSTSPIIGSPPVRAVPIGTPPKQMAVPSFTQQILCPKPVHVRPPMPPRYPAPYGERMSPNQLCSVPNSSLLGHPFPPSVPPVLSPLQRAQLLGGAQLQPGRMSPSQFARVPGFVGSPLAAMNPKLLQGRVGQMLPPAPGFRAFFSAPPSATPPPQQHPPGPGPHLQNLRSQAPMFRPDTTHLHPQHRRLLHQRQQQNRSQHRNLNGAGDRGSHRSSHQDHLRKDPYANLMLQREKDWVSKIQMMQLQSTDPYLDDFYYQNYFEKLEKLSAAEEIQGDGPKKERTKLITPQVAKLEHAYKPVQFEGSLGKLTVSSVNNPRKMIDAVVTSRSEDDETKEKQVRDKRRKTLVIIEKTYSLLLDVEDYERRYLLSLEEERPALMDDRKHKICSMYDNLRGKLPGQERPSDDHFVQIMCIRKGKRMVARILPFLSTEQAADILMTTARNLPFLIKKDAQDEVLPCLLSPFSLLLYHLPSVSITSLLRQLMNLPQSAATPALSNPHLTAVLQNKFGLSLLLILLSRGEDLQSSDPATESTQNNQWTEVMFMATRELLRIPQAALAKPISIPTNLVSLFSRYVDRQKLNLLETKLQLVQGIR
Consider B2, for which, in the experiment with HCoV-OC43 gRNA and sgRNA, the “target (unweighted spectral count, OC43 Probe II)” value is given as 5 and the “background (unweighted spectral count, no-probe control)” value came out at 1.

B3: TMPO (protein, UniProt P42166 2-694, looked up)
Lamina-associated polypeptide …: PEFLEDPSVLTKDKLKSELVANNVTLPAGEQRKDVYVQLYLQHLTARNRPPLPAGTNSKGPPDFSSDEEREPTPVLGSGAAAAGRSRAAVGRKATKKTDKPRQEDKDDLDVTELTNEDLLDQLVKYGVNPGPIVGTTRKLYEKKLLKLREQGTESRSSTPLPTISSSAENTRQNGSNDSDRYSDNEEGKKKEHKKVKSTRDIVPFSELGTTPSGGGFFQGISFPEISTRPPLGSTELQAAKKVHTSKGDLPREPLVATNLPGRGQLQKLASERNLFISCKSSHDRCLEKSSSSSSQPEHSAMLVSTAASPSLIKETTTGYYKDIVENICGREKSGIQPLCPERSHISDQSPLSSKRKALEESESSQLISPPLAQAIRDYVNSLLVQGGVGSLPGTSNSMPPLDVENIQKRIDQSKFQETEFLSPPRKVPRLSEKSVEERDSGSFVAFQNIPGSELMSSFAKTVVSHSLTTLGLEVAKQSQHDKIDASELSFPFHESILKVIEEEWQQVDRQLPSLACKYPVSSREATQILSVPKVDDEILGFISEATPLGGIQAASTESCNQQLDLALCRAYEAAASALQIATHTAFVAKAMQADISQAAQILSSDPSRTHQALGILSKTYDAASYICEAAFDEVKMAAHTMGNATVGRRYLWLKDCKINLASKNKLASTPFKGGTLFGGEVCKVIKKRGNKH
With B3, the “target (unweighted spectral count)” value with HCoV-OC43 gRNA and sgRNA worked out at 4.

B4: HNANPF (protein, UniProt P52597 1-415, looked up)
Heterogeneous nuclear …: MMLGPEGGEGFVVKLRGLPWSCSVEDVQNFLSDCTIHDGAAGVHFIYTREGRQSGEAFVELGSEDDVKMALKKDRESMGHRYIEVFKSHRTEMDWVLKHSGPNSADSANDGFVRLRGLPFGCTKEEIVQFFSGLEIVPNGITLPVDPEGKITGEAFVQFASQELAEKALGKHKERIGHRYIEVFKSSQEEVRSYSDPPLKFMSVQRPGPYDRPGTARRYIGIVKQAGLERMRPGAYSTGYGGYEEYSGLSDGYGFTTDLFGRDLSYCLSGMYDHRYGDSEFTVQSTTGHCVHMRGLPYKATENDIYNFFSPLNPVRVHIEIGPDGRVTGEADVEFATHEEAVAAMSKDRANMQHRYIELFLNSTTGASNGAYSSQVMQGMGVSAAQATYSGLESQSVSGCYGAGYSGQNSMGGYD
For B4, the “background (spectral count, no-probe control)” value in the experiment on gRNA of HCoV-OC43 was 4.

B5: ZNF622 (protein, UniProt Q969S3 2-477, looked up)
Cytoplasmic 60S subunit …: ATYTCITCRVAFRDADMQRAHYKTDWHRYNLRRKVASMAPVTAEGFQERVRAQRAVAEEESKGSATYCTVCSKKFASFNAYENHLKSRRHVELEKKAVQAVNRKVEMMNEKNLEKGLGVDSVDKDAMNAAIQQAIKAQPSMSPKKAPPAPAKEARNVVAVGTGGRGTHDRDPSEKPPRLQWFEQQAKKLAKQQEEDSEEEEEDLDGDDWEDIDSDEELECEDTEAMDDVVEQDAEEEEAEEGPPLGAIPITDCLFCSHHSSSLMKNVAHMTKDHSFFIPDIEYLSDIKGLIKYLGEKVGVGKICLWCNEKGKSFYSTEAVQAHMNDKSHCKLFTDGDAALEFADFYDFRSSYPDHKEGEDPNKAEELPSEKNLEYDDETMELILPSGARVGHRSLMRYYKQRFGLSRAVAVAKNRKAVGRVLQQYRALGWTGSTGAALMRERDMQYVQRMKSKWMLKTGMKNNATKQMHFRVQVRF
For B5, in the experiment with HCoV-OC43 gRNA and sgRNA, the “target (unweighted spectral count, OC43 Probe II)” value came to 5 and the “background (unweighted spectral count, no-probe control)” value amounted to 1.

B6: POLG (protein, UniProt P54098 1-1239, looked up)
DNA polymerase subunit gamma-1: MSRLLWRKVAGATVGPGPVPAPGRWVSSSVPASDPSDGQRRRQQQQQQQQQQQQQPQQPQVLSSEGGQLRHNPLDIQMLSRGLHEQIFGQGGEMPGEAAVRRSVEHLQKHGLWGQPAVPLPDVELRLPPLYGDNLDQHFRLLAQKQSLPYLEAANLLLQAQLPPKPPAWAWAEGWTRYGPEGEAVPVAIPEERALVFDVEVCLAEGTCPTLAVAISPSAWYSWCSQRLVEERYSWTSQLSPADLIPLEVPTGASSPTQRDWQEQLVVGHNVSFDRAHIREQYLIQGSRMRFLDTMSMHMAISGLSSFQRSLWIAAKQGKHKVQPPTKQGQKSQRKARRGPAISSWDWLDISSVNSLAEVHRLYVGGPPLEKEPRELFVKGTMKDIRENFQDLMQYCAQDVWATHEVFQQQLPLFLERCPHPVTLAGMLEMGVSYLPVNQNWERYLAEAQGTYEELQREMKKSLMDLANDACQLLSGERYKEDPWLWDLEWDLQEFKQKKAKKVKKEPATASKLPIEGAGAPGDPMDQEDLGPCSEEEEFQQDVMARACLQKLKGTTELLPKRPQHLPGHPGWYRKLCPRLDDPAWTPGPSLLSLQMRVTPKLMALTWDGFPLHYSERHGWGYLVPGRRDNLAKLPTGTTLESAGVVCPYRAIESLYRKHCLEQGKQQLMPQEAGLAEEFLLTDNSAIWQTVEELDYLEVEAEAKMENLRAAVPGQPLALTARGGPKDTQPSYHHGNGPYNDVDIPGCWFFKLPHKDGNSCNVGSPFAKDFLPKMEDGTLQAGPGGASGPRALEINKMISFWRNAHKRISSQMVVWLPRSALPRAVIRHPDYDEEGLYGAILPQVVTAGTITRRAVEPTWLTASNARPDRVGSELKAMVQAPPGYTLVGADVDSQELWIAAVLGDAHFAGMHGCTAFGWMTLQGRKSRGTDLHSKTATTVGISREHAKIFNYGRIYGAGQPFAERLLMQFNHRLTQQEAAEKAQQMYAATKGLRWYRLSDEGEWLVRELNLPVDRTEGGWISLQDLRKVQRETARKSQWKKWEVVAERAWKGGTESEMFNKLESIATSDIPRTPVLGCCISRALEPSAVQEEFMTSRVNWVVQSSAVDYLHLMLVAMKWLFEEFAIDGRFCISIHDEVRYLVREEDRYRAALALQITNLLTRCMFAYKLGLNDLPQSVAFFSAVDIDRCLRKEVTMDCKTPSNPTGMERRYGIPQGEALDIYQIIELTKGSLEKRSQPGP
With B6, the “target (unweighted spectral count)” value in the experiment with HCoV-OC43 gRNA and sgRNA is recorded as 5.

B7: HIST1H1D (protein, UniProt P16402 2-221, looked up)
Histone H1.3: SETAPLAPTIPAPAEKTPVKKKAKKAGATAGKRKASGPPVSELITKAVAASKERSGVSLAALKKALAAAGYDVEKNNSRIKLGLKSLVSKGTLVQTKGTGASGSFKLNKKAASGEGKPKAKKAGAAKPRKPAGAAKKPKKVAGAATPKKSIKKTPKKVKKPATAAGTKKVAKSAKKVKTPQPKKAAKSPAKAKAPKPKAAKPKSGKPKVTKAKKAAPKKK
Turning to B7, the “target (unweighted spectral count)” value in the experiment with HCoV-OC43 gRNA and sgRNA amounted to 5.

B8: DBX3X: host protein, UniProt O00571 (protein, UniProt O00571 2-662, looked up)
ATP-dependent RNA helicase …: SHVAVENALGLDQQFAGLDLNSSDNQSGGSTASKGRYIPPHLRNREATKGFYDKDSSGWSSSKDKDAYSSFGSRSDSRGKSSFFSDRGSGSRGRFDDRGRSDYDGIGSRGDRSGFGKFERGGNSRWCDKSDEDDWSKPLPPSERLEQELFSGGNTGINFEKYDDIPVEATGNNCPPHIESFSDVEMGEIIMGNIELTRYTRPTPVQKHAIPIIKEKRDLMACAQTGSGKTAAFLLPILSQIYSDGPGEALRAMKENGRYGRRKQYPISLVLAPTRELAVQIYEEARKFSYRSRVRPCVVYGGADIGQQIRDLERGCHLLVATPGRLVDMMERGKIGLDFCKYLVLDEADRMLDMGFEPQIRRIVEQDTMPPKGVRHTMMFSATFPKEIQMLARDFLDEYIFLAVGRVGSTSENITQKVVWVEESDKRSFLLDLLNATGKDSLTLVFVETKKGADSLEDFLYHEGYACTSIHGDRSQRDREEALHQFRSGKSPILVATAVAARGLDISNVKHVINFDLPSDIEEYVHRIGRTGRVGNLGLATSFFNERNINITKDLLDLLVEAKQEVPSWLENMAYEHHYKGSSRGRSKSSRFSGGFGARDYRQSSGASSSSFSSSRASSSRSGGGGHGSSRGFGGGGYGGFYNSDGYGGNYNSQGVDWWGN
With B8, the “target (spectral count)” value in the experiment with HCoV-OC43 gRNA and sgRNA (type s_36_m, HCoV-OC43-infected HCT-8 cells, 36 hpi, Probe II) is on record as 7. Besides, the “background (spectral count)” value with HCoV-OC43 gRNA and sgRNA (type s_36_m, uninfected-probe control, 36 hpi, Probe II) is listed as 1.

(Values after patent US20230407373A1 (priority 2020, published 2023).)
